From PMC9288512

Target: recombinant human proprotein convertase subtilisin/kexin 9 (hPCSK9), his-tagged, Q8NBP7
Experiment: SPR
Conditions: chain shown with the change; 25 ℃; parent: ~5.013

Chain of recombinant human proprotein convertase subtilisin/kexin 9 (hPCSK9), his-tagged, Q8NBP7 (Q8NBP7 153-692): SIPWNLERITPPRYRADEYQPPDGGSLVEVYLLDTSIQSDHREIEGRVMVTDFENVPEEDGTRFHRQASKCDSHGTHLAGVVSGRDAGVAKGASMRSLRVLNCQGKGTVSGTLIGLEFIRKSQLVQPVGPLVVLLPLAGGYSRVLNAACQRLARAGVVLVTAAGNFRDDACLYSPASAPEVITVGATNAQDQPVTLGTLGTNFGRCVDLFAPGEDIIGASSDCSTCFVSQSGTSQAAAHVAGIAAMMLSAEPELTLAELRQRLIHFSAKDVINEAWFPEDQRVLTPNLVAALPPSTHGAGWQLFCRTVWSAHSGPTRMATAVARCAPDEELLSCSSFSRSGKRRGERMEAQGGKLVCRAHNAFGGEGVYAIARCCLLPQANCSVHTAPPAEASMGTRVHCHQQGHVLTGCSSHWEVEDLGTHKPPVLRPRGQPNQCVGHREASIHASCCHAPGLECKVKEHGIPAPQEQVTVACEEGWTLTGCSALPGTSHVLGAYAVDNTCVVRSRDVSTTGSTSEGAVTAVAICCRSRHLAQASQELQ

| Binder | Kd [nM] |
| --- | --- |
| VHH-B11 (monovalent camelid nanobody against hPCSK9) FR1:Q1E; FR1:Q5L; FR1:S11L; FR1:A14P; FR1:T23A; FR1:V24A; FR3:V87L; FR3:K95R; FR3:P96A; FR3:M101V (protein) EVQLLESGGGLVQPGGSLRLSCAASGYTYSSNCMGWFRQAPGKEHEGVASIYIGGGSTYYADSVKGRFTISQDNAKNTLYLQMNSLRAEDTAVYYCAVGCQGLVDFGYWDQGTQVTVSS | 3.22 |
| VHH-B11 (monovalent camelid nanobody against hPCSK9) FR1:Q1E; FR1:Q5L; FR1:S11L; FR1:A14P; FR2:A54S; FR3:Q80R; FR3:A83S; FR3:V87L; FR3:K95R; FR3:P96A; FR3:M101V (protein) EVQLLESGGGLVQPGGSLRLSCTVSGYTYSSNCMGWFRQAPGKEHEGVSSIYIGGGSTYYADSVKGRFTISRDNSKNTLYLQMNSLRAEDTAVYYCAVGCQGLVDFGYWDQGTQVTVSS | 7.99 |
| VHH-B11 (monovalent camelid nanobody against hPCSK9) FR1:Q1E; FR1:Q5L; FR1:S11L; FR1:A14P; FR1:T23A; FR1:V24A; FR2:A54S; FR3:A83S; FR3:V87L; FR3:K95R; … (protein) EVQLLESGGGLVQPGGSLRLSCAASGYTYSSNCMGWFRQAPGKEHEGVSSIYIGGGSTYYADSVKGRFTISQDNSKNTLYLQMNSLRAEDTAVYYCAVGCQGLVDFGYWDQGTQVTVSS | > 1000 |
| VHH-B11 (monovalent camelid nanobody against hPCSK9) FR1:Q1E; FR1:Q5L; FR1:S11L; FR1:A14P; FR1:T23A; FR1:V24A; FR2:A54S; FR3:A83S; FR3:K95R; FR3:P96A; FR3:M101V (protein) EVQLLESGGGLVQPGGSLRLSCAASGYTYSSNCMGWFRQAPGKEHEGVSSIYIGGGSTYYADSVKGRFTISQDNSKNTVYLQMNSLRAEDTAVYYCAVGCQGLVDFGYWDQGTQVTVSS | 11.3 |
| VHH-B11 (monovalent camelid nanobody against hPCSK9) FR1:Q1E; FR1:Q5L; FR1:S11L; FR1:A14P; FR1:T23A; FR1:V24A; FR2:A54S; FR3:V87L; FR3:K95R; FR3:P96A; FR3:M101V (protein) EVQLLESGGGLVQPGGSLRLSCAASGYTYSSNCMGWFRQAPGKEHEGVSSIYIGGGSTYYADSVKGRFTISQDNAKNTLYLQMNSLRAEDTAVYYCAVGCQGLVDFGYWDQGTQVTVSS | > 1000 |
